B1: RBBP5 (parent)
chain: TGTSNTTAIKSIEFARKGSCFLIN

Variants of: B1
Assay: protein stability index of a GFP-peptide fusion (GPS, HEK-293T) (PSI 1-6); higher = more stable
Settings: c terminus: a fixed tail appended
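Note: lentivirally expressed fusions sorted by FACS into six bins by GFP to DsRed ratio, PSI derived from sequencing read proportions per bin multiplied by bin number.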

| Variant | protein stability index |
| --- | --- |
| TGTSNTTAIKTIEFARKGSCFLIN [S11T] | 2.1 |
| TGTSNTTAIKGIEFARKGSCFLIN [S11G] | 2.12 |
| TGTSNTTWIKSIEFARKGSCFLIN [A8W] | 2.62 |
| TGTSNTTVIKSIEFARKGSCFLIN [A8V] | 1.58 |
| TGTSNTTKIKSIEFARKGSCFLIN [A8K] | 2.2 |
| TGTSNTTQIKSIEFARKGSCFLIN [A8Q] | 2.21 |
| TGTSNTTNIKSIEFARKGSCFLIN [A8N] | 2.56 |
| TGTSNTTSIKSIEFARKGSCFLIN [A8S] | 2.01 |
| TGTSNTTAIKSIEFARLGSCFLIN [K17L] | 1.75 |
| TGTSNTTAIKSIEFARYGSCFLIN [K17Y] | 2.22 |
| TGTSNTTAIKSIEFARRGSCFLIN [K17R] | 2.7 |
| TGTSNTTAIKSIEFARDGSCFLIN [K17D] | 2.7 |
| TGTSNTTAIKSIEFARCGSCFLIN [K17C] | 1.8 |
| TGTSNTTAIKSIEFAREGSCFLIN [K17E] | 2.6 |
| TGTSNTTAIKSIEFARPGSCFLIN [K17P] | 2.3 |
| TGTSNTTAIKSIEFARMGSCFLIN [K17M] | 1.73 |
| TGTSNDTAIKSIEFARKGSCFLIN [T6D] | 2.55 |
| TGTSNETAIKSIEFARKGSCFLIN [T6E] | 2.82 |
| TGTSNCTAIKSIEFARKGSCFLIN [T6C] | 2.05 |
| TGTSNNTAIKSIEFARKGSCFLIN [T6N] | 3.06 |
| TGTSNRTAIKSIEFARKGSCFLIN [T6R] | 1.55 |
| TGTSNWTAIKSIEFARKGSCFLIN [T6W] | 1.74 |
| TGTSNTTAIKSIEFARKGSCFLIT [N24T] | 1.76 |
| TGTSNTTAIKSIEFARKGSCFLIF [N24F] | 2.74 |

| Variant | protein stability index |
| --- | --- |
| TGTSNTTAIKSIEFARKGSCFLIS [N24S] | 2.04 |
| TGTSNTTAIKSIEFARKGSCFLIE [N24E] | 3.01 |
| TGTSNTTAIKSIEFARKGSCFLID [N24D] | 2.85 |
| TGTSNTTAIKSIEFARKGSCFLIC [N24C] | 2.38 |
| TGTSNTTAIKSIEFARKGSCFLIG [N24G] | 2.27 |
| TGTSNTTAIKSIEFARKGSCFLIQ [N24Q] | 1.79 |
| TGTSNTTAIKSIEFARKFSCFLIN [G18F] | 1.99 |
| TGTSNTTAIKSIEFARKDSCFLIN [G18D] | 2.89 |
| TGTSNTTAIKSIEFARKSSCFLIN [G18S] | 2.32 |
| TGTSNTTAIKSIEFARKASCFLIN [G18A] | 1.9 |
| TGTSNTTAIKSIEFARKMSCFLIN [G18M] | 1.85 |
| TGTSNTTAIKSIEFARKNSCFLIN [G18N] | 2.18 |
| TGTSNTTAIKSIEFARKHSCFLIN [G18H] | 1.74 |
| TGTSNTTAIKSIEFARKPSCFLIN [G18P] | 2.35 |
| TGTSNTTAIKSIEFARKVSCFLIN [G18V] | 3.95 |
| AGTSNTTAIKSIEFARKGSCFLIN [T1A] | 2.15 |
| KGTSNTTAIKSIEFARKGSCFLIN [T1K] | 2.45 |
| MGTSNTTAIKSIEFARKGSCFLIN [T1M] | 2.43 |
| SGTSNTTAIKSIEFARKGSCFLIN [T1S] | 2.2 |
| FGTSNTTAIKSIEFARKGSCFLIN [T1F] | 1.88 |
| TGTSNTTAIKSIEFARKGSCSLIN [F21S] | 3.09 |
| TGTSNTTAIKSIEFARKGSCDLIN [F21D] | 3.83 |
| TGTSNTTAIKSIEFARKGSCPLIN [F21P] | 3.13 |
| TGTSNTTAIKSIEFARKGSCTLIN [F21T] | 3.5 |

| Variant | protein stability index |
| --- | --- |
| TGTSNTTAIKSIEFARKGSCNLIN [F21N] | 3.53 |
| TGTSNTTAIKSIEFARKGSCRLIN [F21R] | 3.15 |
| TGTSNTTAIKSIEFARKGSCKLIN [F21K] | 3.48 |
| TGTSNTTAIKSIENARKGSCFLIN [F14N] | 3.17 |
| TGTSNTTAIKSIEPARKGSCFLIN [F14P] | 3.05 |
| TGTSNTTAIKSIEDARKGSCFLIN [F14D] | 3.15 |
| TGTSNTTAIKSIEEARKGSCFLIN [F14E] | 3.84 |
| TGTSNTTAIKSIEYARKGSCFLIN [F14Y] | 2.38 |
| TGTSNTTAIKSIEGARKGSCFLIN [F14G] | 2.76 |
| TGTSNTTAIKSIECARKGSCFLIN [F14C] | 2.53 |
| TGTSNTTAIKSIEKARKGSCFLIN [F14K] | 3.17 |
| TGTSNTTAIKSIESARKGSCFLIN [F14S] | 3.42 |
| TGTSNTTAIKSIEHARKGSCFLIN [F14H] | 2.73 |
| TGTSNTTAIKSIEQARKGSCFLIN [F14Q] | 3.12 |
| TGTSLTTAIKSIEFARKGSCFLIN [N5L] | 1.9 |
| TGTSQTTAIKSIEFARKGSCFLIN [N5Q] | 2.58 |
| TGTSMTTAIKSIEFARKGSCFLIN [N5M] | 1.66 |
| TGTSITTAIKSIEFARKGSCFLIN [N5I] | 1.95 |
| TGTSYTTAIKSIEFARKGSCFLIN [N5Y] | 1.63 |
| TGTSETTAIKSIEFARKGSCFLIN [N5E] | 2.57 |
| TGTSWTTAIKSIEFARKGSCFLIN [N5W] | 1.64 |
| TGTSKTTAIKSIEFARKGSCFLIN [N5K] | 2.15 |
| TGTSPTTAIKSIEFARKGSCFLIN [N5P] | 2.08 |
| TGTSNTTAIKSTEFARKGSCFLIN [I12T] | 2.61 |

| Variant | protein stability index |
| --- | --- |
| TGTSNTTAIKSVEFARKGSCFLIN [I12V] | 2.6 |
| TGESNTTAIKSIEFARKGSCFLIN [T3E] | 2.55 |
| TGDSNTTAIKSIEFARKGSCFLIN [T3D] | 2.46 |
| TGVSNTTAIKSIEFARKGSCFLIN [T3V] | 1.87 |
| TGQSNTTAIKSIEFARKGSCFLIN [T3Q] | 2.11 |
| TGASNTTAIKSIEFARKGSCFLIN [T3A] | 2.15 |
| TGNSNTTAIKSIEFARKGSCFLIN [T3N] | 1.86 |
| TGSSNTTAIKSIEFARKGSCFLIN [T3S] | 1.9 |
| TGRSNTTAIKSIEFARKGSCFLIN [T3R] | 1.88 |
| TGGSNTTAIKSIEFARKGSCFLIN [T3G] | 2.24 |
| TGFSNTTAIKSIEFARKGSCFLIN [T3F] | 1.61 |
| TGHSNTTAIKSIEFARKGSCFLIN [T3H] | 2.52 |
| TGMSNTTAIKSIEFARKGSCFLIN [T3M] | 2.2 |
| TGTSNTTAIKSIEFARKGSCFLEN [I23E] | 3.38 |
| TGTSNTTAIKSIEFARKGSCFLQN [I23Q] | 3.31 |
| TGTSNTTAIKSIEFARKGSCFLGN [I23G] | 2.73 |
| TGTSNTTAITSIEFARKGSCFLIN [K10T] | 1.77 |
| TGTSNTTAIRSIEFARKGSCFLIN [K10R] | 2.29 |
| TGTSNTTAICSIEFARKGSCFLIN [K10C] | 2.38 |
| TGTSNTTAIFSIEFARKGSCFLIN [K10F] | 2.9 |
| TGTSNTTAIQSIEFARKGSCFLIN [K10Q] | 2.82 |
| TGTSNTTAIYSIEFARKGSCFLIN [K10Y] | 3.11 |
